Results: patent publication US11746139B2, “IL-7Rαγc binding compounds” (MEDIKINE, INC., priority 2020, dated 2023)

Key:
[1] = target: IL-7Rα (Homo sapiens, UniProt P16871); assay: Competition binding ELISA with bn407::NA-HRP precomplex; details: bn407:NA-HRP 10 nM final; read-out: Competitive Binding ELISA bn407:NA-HRP (10 nMf) IC50 M
[2] = target: T1, Rγc subunit (Homo sapiens, UniProt P31785); assay: Phage competitive binding assay characterizing the Rγc ligand binding site; details: for Competition with Phage Clone SEQ ID NO: 198 (Family 1A) for binding to the Rγc subunit: phage clone 198, immobilized Rγc ECD; for Competition with Phage Clone SEQ ID NO: 224 (Family 1B) for binding to the Rγc subunit: phage clone 224, immobilized Rγc ECD; for Competition with Phage Clone SEQ ID NO: 236 (Family 2) for binding to the Rγc subunit: phage clone 236, immobilized Rγc ECD; for Competition with Phage Clone SEQ ID NO: 248 (Family 3) for binding to the Rγc subunit: phage clone 248, immobilized Rγc ECD; for Competition with Phage Clone SEQ ID NO: 266 (Family 4) for binding to the Rγc subunit: phage clone 266, immobilized Rγc ECD; for Competition with Phage Clone SEQ ID NO: 930 (Family 5) for binding to the Rγc subunit: phage clone 930, immobilized Rγc ECD
T1 construct: purchased ACRObiosystems, Inc. ILG-H5256
T1 sequence (P31785 23-254): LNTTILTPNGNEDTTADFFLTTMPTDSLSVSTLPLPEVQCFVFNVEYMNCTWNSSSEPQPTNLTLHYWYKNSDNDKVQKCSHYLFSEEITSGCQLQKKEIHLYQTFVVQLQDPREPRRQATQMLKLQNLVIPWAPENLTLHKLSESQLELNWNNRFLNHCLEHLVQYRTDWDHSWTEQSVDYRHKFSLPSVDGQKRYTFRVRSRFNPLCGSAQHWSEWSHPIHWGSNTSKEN

[3] = target: IL-7Rα subunit (Homo sapiens, UniProt P16871); assay: Phage competitive binding assay characterizing the IL-7Rα ligand binding site
IL-7Rα subunit, sequence (P16871 21-236): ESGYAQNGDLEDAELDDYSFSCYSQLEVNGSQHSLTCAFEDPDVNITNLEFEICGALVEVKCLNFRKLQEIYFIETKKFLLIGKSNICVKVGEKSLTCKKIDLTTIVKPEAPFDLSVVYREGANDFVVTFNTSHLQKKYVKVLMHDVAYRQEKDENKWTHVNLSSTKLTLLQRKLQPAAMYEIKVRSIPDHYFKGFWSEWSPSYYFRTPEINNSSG

IL-7Rα, sequence (P16871 21-236): as above

IC50 [1] [nM]	Competition with Phage Clone SEQ ID NO: 930 (Family 5) for binding to the Rγc subunit [2]	Compound	Competition with Phage Clone SEQ ID NO: 198 (Family 1A) for binding to the Rγc subunit [2]	Competition with Phage Clone SEQ ID NO: 224 (Family 1B) for binding to the Rγc subunit [2]	Competition with Phage Clone SEQ ID NO: 236 (Family 2) for binding to the Rγc subunit [2]	Competition with Phage Clone SEQ ID NO: 248 (Family 3) for binding to the Rγc subunit [2]	Competition with Phage Clone SEQ ID NO: 266 (Family 4) for binding to the Rγc subunit [2]	other results
1520		CC[C@H](C)[C@H](N)C(=O)N1CCC[C@H]1C(=O)N[C@@H](Cc1c[nH]c2ccccc12)C(=O)N[C@H]1CSSC[C@@H](C(=O)N[C@@H](C)C(=O)N[C@@H](Cc2c[nH]cn2)C(=O)N[C@@H](CC(C)C)C(=O)N[C@@H](CCCNC(=N)N)C(=O)N[C@@H](CCC(N)=O)C(=O)N[C@@H](CCSC)C(=O)NCC(=O)NCC(=O)O)NC(=O)[C@H](CCC(N)=O)NC(=O)[C@H](CC(C)C)NC(=O)CNC(=O)CNC(=O)[C@@H]2CCCN2C(=O)[C@H](CC(=O)O)NC(=O)[C@H](CC(C)C)NC(=O)[C@H]([C@@H](C)O)NC1=O [SEQ ID NO: 424, I P W C T L D P G G L Q C A H L R Q M]						
1850		CC[C@H](C)[C@H](N)C(=O)N1CCC[C@H]1C(=O)N[C@@H](Cc1c[nH]c2ccccc12)C(=O)N[C@H]1CSSC[C@@H](C(=O)N[C@@H](C)C(=O)N[C@@H](Cc2c[nH]c3ccccc23)C(=O)N[C@@H](C)C(=O)N[C@@H](CCCNC(=N)N)C(=O)N[C@@H](CCC(N)=O)C(=O)N[C@@H](CCSC)C(=O)NCC(=O)NCC(=O)O)NC(=O)[C@H](CCC(N)=O)NC(=O)[C@H](CC(C)C)NC(=O)CNC(=O)CNC(=O)[C@@H]2CCCN2C(=O)[C@H](CC(=O)O)NC(=O)[C@H](CC(C)C)NC(=O)[C@H]([C@@H](C)O)NC1=O [SEQ ID NO: 425, I P W C T L D P G G L Q C A W A R Q M]						

Further lines, the compound ahead of its results:

Compound	IC50 [1] [nM]	Competition with Phage Clone SEQ ID NO: 930 (Family 5) for binding to the Rγc subunit [2]	Competition with Phage Clone SEQ ID NO: 198 (Family 1A) for binding to the Rγc subunit [2]	Competition with Phage Clone SEQ ID NO: 224 (Family 1B) for binding to the Rγc subunit [2]	Competition with Phage Clone SEQ ID NO: 236 (Family 2) for binding to the Rγc subunit [2]	Competition with Phage Clone SEQ ID NO: 248 (Family 3) for binding to the Rγc subunit [2]	Competition with Phage Clone SEQ ID NO: 266 (Family 4) for binding to the Rγc subunit [2]	other results
CC[C@H](C)[C@H](N)C(=O)N1CCC[C@H]1C(=O)N[C@@H](Cc1c[nH]c2ccccc12)C(=O)N[C@H]1CSSC[C@@H](C(=O)N[C@@H](C)C(=O)N[C@@H](Cc2c[nH]c3ccccc23)C(=O)N[C@@H](CC(C)C)C(=O)N[C@@H](CCCNC(=N)N)C(=O)N[C@@H](CCC(N)=O)C(=O)N[C@@H](CCSC)C(=O)NCC(=O)NCC(=O)O)NC(=O)[C@H](CCC(N)=O)NC(=O)[C@H](CC(C)C)NC(=O)CNC(=O)CNC(=O)[C@@H]2CCCN2C(=O)[C@H](CC(=O)O)NC(=O)[C@H](CC(C)C)NC(=O)[C@H]([C@@H](C)O)NC1=O [SEQ ID NO: 420, I P W C T L D P G G L Q C A W L R Q M]	705							
CC[C@H](C)[C@H](N)C(=O)N1CCC[C@H]1C(=O)N[C@@H](Cc1c[nH]c2ccccc12)C(=O)N[C@H]1CSSC[C@@H](C(=O)N[C@@H](C)C(=O)N[C@@H](C)C(=O)N[C@@H](CC(C)C)C(=O)N[C@@H](CCCNC(=N)N)C(=O)N[C@@H](CCC(N)=O)C(=O)N[C@@H](CCSC)C(=O)NCC(=O)NCC(=O)O)NC(=O)[C@H](CCC(N)=O)NC(=O)[C@H](CC(C)C)NC(=O)CNC(=O)CNC(=O)[C@@H]2CCCN2C(=O)[C@H](CC(=O)O)NC(=O)[C@H](CC(C)C)NC(=O)[C@H]([C@@H](C)O)NC1=O [SEQ ID NO: 421, I P W C T L D P G G L Q C A A L R Q M]	7580							
CC[C@H](C)[C@H](N)C(=O)N1CCC[C@H]1C(=O)N[C@@H](Cc1c[nH]c2ccccc12)C(=O)N[C@H]1CSSC[C@@H](C(=O)N[C@@H](C)C(=O)N[C@@H](Cc2ccccc2)C(=O)N[C@@H](CC(C)C)C(=O)N[C@@H](CCCNC(=N)N)C(=O)N[C@@H](CCC(N)=O)C(=O)N[C@@H](CCSC)C(=O)NCC(=O)NCC(=O)O)NC(=O)[C@H](CCC(N)=O)NC(=O)[C@H](CC(C)C)NC(=O)CNC(=O)CNC(=O)[C@@H]2CCCN2C(=O)[C@H](CC(=O)O)NC(=O)[C@H](CC(C)C)NC(=O)[C@H]([C@@H](C)O)NC1=O [SEQ ID NO: 422, I P W C T L D P G G L Q C A F L R Q M]	903							
CC[C@H](C)[C@H](N)C(=O)N1CCC[C@H]1C(=O)N[C@@H](Cc1c[nH]c2ccccc12)C(=O)N[C@H]1CSSC[C@@H](C(=O)N[C@@H](C)C(=O)N[C@@H](Cc2ccc(O)cc2)C(=O)N[C@@H](CC(C)C)C(=O)N[C@@H](CCCNC(=N)N)C(=O)N[C@@H](CCC(N)=O)C(=O)N[C@@H](CCSC)C(=O)NCC(=O)NCC(=O)O)NC(=O)[C@H](CCC(N)=O)NC(=O)[C@H](CC(C)C)NC(=O)CNC(=O)CNC(=O)[C@@H]2CCCN2C(=O)[C@H](CC(=O)O)NC(=O)[C@H](CC(C)C)NC(=O)[C@H]([C@@H](C)O)NC1=O [SEQ ID NO: 423, I P W C T L D P G G L Q C A Y L R Q M]	664							
D C S M W E J G V E L C W [SEQ ID NO: 224]		−	+ (Rγc ligand competes with phage binding.)	+ (Rγc ligand competes with phage binding.)	+ (Rγc ligand competes with phage binding.)	+ (Rγc ligand competes with phage binding.)	+ (Rγc ligand competes with phage binding.)	
M C W L E W G E W V G S C L [SEQ ID NO: 236]		−	+ (Rγc ligand competes with phage binding.)	+ (Rγc ligand competes with phage binding.)	+ (Rγc ligand competes with phage binding.)	+ (Rγc ligand competes with phage binding.)	+ (Rγc ligand competes with phage binding.)	
R T C T E W E N V V L C W V [SEQ ID NO: 202]		−	+^1 (Rγc ligand competes with phage binding.)	+ (Rγc ligand competes with phage binding.)	+ (Rγc ligand competes with phage binding.)	+ (Rγc ligand competes with phage binding.)	+ (Rγc ligand competes with phage binding.)	
S L L K C Y N A S T C A S V F [SEQ ID NO: 930]		+ (Rγc ligand competes with phage binding.)	−^2	−	−	−	−	
V V C Q D W E G V E L C W Q [SEQ ID NO: 965]								Competition with Phage Clone SEQ ID NO: 5 (Family 1) for binding to the IL-7Rα subunit ([3]; phage clone 5, immobilized IL-7Rα ECD): 0; Competition with Phage Clone SEQ ID NO: 43 (Family 3A) for binding to the IL-7Rα subunit ([3]; phage clone 43, immobilized IL-7Rα ECD): 0; Competition with Phage Clone SEQ ID NO: 104 (Family 3B) for binding to the IL-7Rα subunit ([3]; phage clone 104, immobilized IL-7Rα ECD): 0; Competition with Phage Clone SEQ ID NO: 313 (Family 2) for binding to the IL-7Rα subunit ([3]; phage clone 313, immobilized IL-7Rα ECD): 0; Competition with Phage Clone SEQ ID NO: 965 (N/A) for binding to the IL-7Rα subunit ([3]; phage clone 965, immobilized IL-7Rα ECD): 0
Y D C R I A Q V G E L C D L [SEQ ID NO: 58, IL-2Rβ Ligand, reference compound]		−	−	−	−	−	−	Competition for binding to the binding site with the group of Rγc ligands [2]: does not compete
